Measured values: article PMC9482650, “Quantitative fragmentomics allow affinity mapping of interactomes” (Nature Communications, 2022)

T1: NHERF3_2, Q5T2W1
T1 sequence (Q5T2W1 129-225, limits assumed, looked up): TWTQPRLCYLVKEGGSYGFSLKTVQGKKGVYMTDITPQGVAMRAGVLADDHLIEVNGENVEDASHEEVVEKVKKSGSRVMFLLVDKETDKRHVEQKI

T2: LIN7C, Q9NUP9
T2 sequence (Q9NUP9 88-185, limits assumed, looked up): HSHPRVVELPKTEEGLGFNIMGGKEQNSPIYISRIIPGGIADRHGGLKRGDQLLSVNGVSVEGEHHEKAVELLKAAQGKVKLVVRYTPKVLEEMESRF

T3: SYNPO2L, Q9H987
T3 sequence (Q9H987 1-98, limits assumed, looked up): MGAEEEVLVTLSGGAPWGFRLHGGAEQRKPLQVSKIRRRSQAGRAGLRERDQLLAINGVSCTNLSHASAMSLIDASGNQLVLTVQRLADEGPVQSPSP

T4: PDLIM3, Q53GG5
T4 sequence (Q53GG5 1-94, limits assumed, looked up): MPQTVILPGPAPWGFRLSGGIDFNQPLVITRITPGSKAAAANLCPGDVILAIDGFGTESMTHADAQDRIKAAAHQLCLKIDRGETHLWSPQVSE

T5: PARD6G, Q9BYG4
T5 sequence (Q9BYG4 153-261, limits assumed, looked up): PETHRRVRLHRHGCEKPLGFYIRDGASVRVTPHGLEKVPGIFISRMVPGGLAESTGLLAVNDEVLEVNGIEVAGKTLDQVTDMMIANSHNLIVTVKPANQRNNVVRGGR

T6: MPDZ_7, O75970
T6 sequence (O75970 1146-1253, limits assumed, looked up): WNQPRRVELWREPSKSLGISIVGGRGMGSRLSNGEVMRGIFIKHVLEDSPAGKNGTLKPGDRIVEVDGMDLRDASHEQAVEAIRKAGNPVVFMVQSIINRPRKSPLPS

T7: PDZD2_1, O15018
T7 sequence (O15018 80-192, limits assumed, looked up): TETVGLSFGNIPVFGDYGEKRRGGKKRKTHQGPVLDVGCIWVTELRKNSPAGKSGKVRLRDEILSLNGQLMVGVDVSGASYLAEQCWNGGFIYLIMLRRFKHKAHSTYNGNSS

T8: MPP5, Q8N3R9
T8 sequence (Q8N3R9 251-346, limits assumed, looked up): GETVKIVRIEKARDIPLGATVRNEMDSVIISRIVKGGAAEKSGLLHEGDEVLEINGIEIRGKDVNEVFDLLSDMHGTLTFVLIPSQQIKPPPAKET

T9: DFNB31_2, Q9P202
T9 sequence (Q9P202 274-371, limits assumed, looked up): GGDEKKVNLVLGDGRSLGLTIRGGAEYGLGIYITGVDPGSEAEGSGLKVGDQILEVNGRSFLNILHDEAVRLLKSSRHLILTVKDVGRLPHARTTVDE

T10: PDZRN3_2, Q9UPQ7
T10 sequence (Q9UPQ7 414-513, limits assumed, looked up): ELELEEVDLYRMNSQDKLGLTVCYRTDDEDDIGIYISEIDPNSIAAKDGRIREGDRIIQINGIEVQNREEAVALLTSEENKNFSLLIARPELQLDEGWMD

T11: PDZD11, Q5EBL8
T11 sequence (Q5EBL8 42-139, limits assumed, looked up): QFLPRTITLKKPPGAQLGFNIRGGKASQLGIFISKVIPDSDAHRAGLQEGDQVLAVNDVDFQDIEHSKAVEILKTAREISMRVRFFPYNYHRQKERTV

T12: MPDZ_3, O75970
T12 sequence (O75970 372-473, limits assumed, looked up): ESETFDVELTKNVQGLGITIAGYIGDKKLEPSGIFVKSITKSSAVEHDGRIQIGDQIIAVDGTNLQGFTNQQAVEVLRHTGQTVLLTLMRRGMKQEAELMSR

T13: USH1C_3, Q9Y6N9
T13 sequence (Q9Y6N9 447-547, limits assumed, looked up): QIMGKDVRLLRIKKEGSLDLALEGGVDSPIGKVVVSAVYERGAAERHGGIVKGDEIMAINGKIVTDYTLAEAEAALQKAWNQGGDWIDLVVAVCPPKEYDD


What follows are binders tested against T1, NHERF3_2, Q5T2W1 (assay: holdup assay). Conditions: plain residues with an end cap or a label only (N-terminal biotin on a linker: ttds).
Set-up: key: below the threshold = too weak to quantify, mostly under pKd 3.1 to 4
In the case of RRVRKLPSTTL [RPS6KA1, Q15418], the pKd is reported as “below the threshold”.

What follows are binders tested against RIMS2, Q9UQ26 (assay: holdup assay). Conditions: plain residues with an end cap or a label only (N-terminal biotin on a linker: ttds).
RIMS2, Q9UQ26, sequence (Q9UQ26 637-758): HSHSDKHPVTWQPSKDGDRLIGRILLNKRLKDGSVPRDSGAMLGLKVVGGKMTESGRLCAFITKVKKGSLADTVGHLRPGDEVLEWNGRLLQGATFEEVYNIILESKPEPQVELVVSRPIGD
Set-up: key: below the threshold = too weak to quantify, mostly under pKd 3.1 to 4
For RRVRKLPSTTL [RPS6KA1, Q15418], the pKd was “below the threshold”.

The binders below were run against T2, LIN7C, Q9NUP9 (assay: holdup assay). Conditions: plain residues with an end cap or a label only (N-terminal biotin on a linker: ttds).
Set-up: key: below the threshold = too weak to quantify, mostly under pKd 3.1 to 4
For RRVRKLPSTTL [RPS6KA1, Q15418], the pKd was “below the threshold”.

What follows are binders tested against DVL2, O14641 (assay: holdup assay). Conditions: plain residues with an end cap or a label only (N-terminal biotin on a linker: ttds).
DVL2, O14641, sequence (O14641 260-359): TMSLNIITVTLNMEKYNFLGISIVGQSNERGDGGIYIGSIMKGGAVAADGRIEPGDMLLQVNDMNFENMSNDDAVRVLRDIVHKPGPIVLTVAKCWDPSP
Set-up: key: below the threshold = too weak to quantify, mostly under pKd 3.1 to 4
In the case of RRVRKLPSTTL [RPS6KA1, Q15418], the pKd is reported as “below the threshold”.

These binders were tested against T3, SYNPO2L, Q9H987 (assay: holdup assay). Conditions: plain residues with an end cap or a label only (N-terminal biotin on a linker: ttds).
Set-up: key: below the threshold = too weak to quantify, mostly under pKd 3.1 to 4
In the case of RRVRKLPSTTL [RPS6KA1, Q15418], the pKd is reported as “below the threshold”.

These binders were tested against T4, PDLIM3, Q53GG5 (assay: holdup assay). Conditions: plain residues with an end cap or a label only (N-terminal biotin on a linker: ttds).
Set-up: key: below the threshold = too weak to quantify, mostly under pKd 3.1 to 4
For RRVRKLPSTTL [RPS6KA1, Q15418], the pKd was “below the threshold”.

Each binder was assayed against Inadl_7, Q8NI35 (assay: holdup assay). Conditions: plain residues with an end cap or a label only (N-terminal biotin on a linker: ttds).
Inadl_7, Q8NI35, sequence (Q8NI35 1219-1332): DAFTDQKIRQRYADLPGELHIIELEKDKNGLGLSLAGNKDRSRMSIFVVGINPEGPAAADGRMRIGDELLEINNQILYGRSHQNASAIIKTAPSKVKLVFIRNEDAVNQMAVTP
Set-up: key: below the threshold = too weak to quantify, mostly under pKd 3.1 to 4
In the case of RRVRKLPSTTL [RPS6KA1, Q15418], the pKd is reported as “below the threshold”.

Each binder was assayed against T5, PARD6G, Q9BYG4 (assay: holdup assay). Conditions: plain residues with an end cap or a label only (N-terminal biotin on a linker: ttds).
Set-up: key: below the threshold = too weak to quantify, mostly under pKd 3.1 to 4
RRVRKLPSTTL [RPS6KA1, Q15418] was tested, and the pKd was “below the threshold”.

The binders below were run against T6, MPDZ_7, O75970 (assay: holdup assay). Conditions: plain residues with an end cap or a label only (N-terminal biotin on a linker: ttds).
Set-up: key: below the threshold = too weak to quantify, mostly under pKd 3.1 to 4
For RRVRKLPSTTL [RPS6KA1, Q15418], the pKd was “below the threshold”.

Each binder was assayed against T7, PDZD2_1, O15018 (assay: holdup assay). Conditions: plain residues with an end cap or a label only (N-terminal biotin on a linker: ttds).
Set-up: key: below the threshold = too weak to quantify, mostly under pKd 3.1 to 4
In the case of RRVRKLPSTTL [RPS6KA1, Q15418], the pKd is reported as “below the threshold”.

Each binder was assayed against T8, MPP5, Q8N3R9 (assay: holdup assay). Conditions: plain residues with an end cap or a label only (N-terminal biotin on a linker: ttds).
Set-up: key: below the threshold = too weak to quantify, mostly under pKd 3.1 to 4
With RRVRKLPSTTL [RPS6KA1, Q15418] the pKd was “below the threshold”.

Each binder was assayed against T9, DFNB31_2, Q9P202 (assay: holdup assay). Conditions: plain residues with an end cap or a label only (N-terminal biotin on a linker: ttds).
Set-up: key: below the threshold = too weak to quantify, mostly under pKd 3.1 to 4
With RRVRKLPSTTL [RPS6KA1, Q15418] the pKd was “below the threshold”.

Each binder was assayed against MAGI3_6, Q5TCQ9 (assay: holdup assay). Conditions: plain residues with an end cap or a label only (N-terminal biotin on a linker: ttds).
MAGI3_6, Q5TCQ9, sequence (Q5TCQ9 1014-1103): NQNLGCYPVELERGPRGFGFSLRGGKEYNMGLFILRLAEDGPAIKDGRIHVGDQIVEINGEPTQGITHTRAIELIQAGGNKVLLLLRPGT
Set-up: key: below the threshold = too weak to quantify, mostly under pKd 3.1 to 4
RRVRKLPSTTL [RPS6KA1, Q15418] was tested, and the pKd was “below the threshold”.

What follows are binders tested against CNKSR3, Q6P9H4 (assay: holdup assay). Conditions: plain residues with an end cap or a label only (N-terminal biotin on a linker: ttds).
CNKSR3, Q6P9H4, sequence (Q6P9H4 203-303): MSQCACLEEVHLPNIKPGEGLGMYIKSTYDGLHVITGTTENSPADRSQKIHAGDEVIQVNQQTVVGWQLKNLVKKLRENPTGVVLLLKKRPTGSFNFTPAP
Set-up: key: below the threshold = too weak to quantify, mostly under pKd 3.1 to 4
RRVRKLPSTTL [RPS6KA1, Q15418] was tested, and the pKd was “below the threshold”.

What follows are binders tested against MAGI3_4, Q5TCQ9 (assay: holdup assay). Conditions: plain residues with an end cap or a label only (N-terminal biotin on a linker: ttds).
MAGI3_4, Q5TCQ9, sequence (Q5TCQ9 716-815): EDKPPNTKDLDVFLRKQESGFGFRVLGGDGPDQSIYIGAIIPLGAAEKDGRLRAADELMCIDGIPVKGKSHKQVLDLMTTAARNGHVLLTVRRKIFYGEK
Set-up: key: below the threshold = too weak to quantify, mostly under pKd 3.1 to 4
RRVRKLPSTTL [RPS6KA1, Q15418] showed a pKd of 3.59.

These binders were tested against T10, PDZRN3_2, Q9UPQ7 (assay: holdup assay). Conditions: plain residues with an end cap or a label only (N-terminal biotin on a linker: ttds).
Set-up: key: below the threshold = too weak to quantify, mostly under pKd 3.1 to 4
In the case of RRVRKLPSTTL [RPS6KA1, Q15418], the pKd is reported as “below the threshold”.

What follows are binders tested against T11, PDZD11, Q5EBL8 (assay: holdup assay). Conditions: plain residues with an end cap or a label only (N-terminal biotin on a linker: ttds).
Set-up: key: below the threshold = too weak to quantify, mostly under pKd 3.1 to 4
For RRVRKLPSTTL [RPS6KA1, Q15418], the pKd was “below the threshold”.

The binders below were run against T12, MPDZ_3, O75970 (assay: holdup assay). Conditions: plain residues with an end cap or a label only (N-terminal biotin on a linker: ttds).
Set-up: key: below the threshold = too weak to quantify, mostly under pKd 3.1 to 4
RRVRKLPSTTL [RPS6KA1, Q15418] showed a pKd of 3.81.

What follows are binders tested against PDZRN4_2, Q6ZMN7 (assay: holdup assay). Conditions: plain residues with an end cap or a label only (N-terminal biotin on a linker: ttds).
PDZRN4_2, Q6ZMN7, sequence (Q6ZMN7 389-498): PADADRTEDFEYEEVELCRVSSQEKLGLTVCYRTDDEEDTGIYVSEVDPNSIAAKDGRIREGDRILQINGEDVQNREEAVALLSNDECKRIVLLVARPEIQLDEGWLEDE
Set-up: key: below the threshold = too weak to quantify, mostly under pKd 3.1 to 4
For RRVRKLPSTTL [RPS6KA1, Q15418], the pKd was “below the threshold”.

What follows are binders tested against T13, USH1C_3, Q9Y6N9 (assay: holdup assay). Conditions: plain residues with an end cap or a label only (N-terminal biotin on a linker: ttds).
Set-up: key: below the threshold = too weak to quantify, mostly under pKd 3.1 to 4
RRVRKLPSTTL [RPS6KA1, Q15418] was tested, and the pKd was “below the threshold”.

The binders below were run against PTPN13_2, Q12923 (assay: holdup assay). Conditions: plain residues with an end cap or a label only (N-terminal biotin on a linker: ttds).
PTPN13_2, Q12923, sequence (Q12923 1363-1462): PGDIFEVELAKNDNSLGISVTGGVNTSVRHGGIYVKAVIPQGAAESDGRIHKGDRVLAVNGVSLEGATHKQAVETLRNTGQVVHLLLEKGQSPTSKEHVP
Set-up: key: below the threshold = too weak to quantify, mostly under pKd 3.1 to 4
RRVRKLPSTTL [RPS6KA1, Q15418] was tested, and the pKd was “below the threshold”.

The binders below were run against NHERF2_1, Q15599 (assay: holdup assay). Conditions: plain residues with an end cap or a label only (N-terminal biotin on a linker: ttds).
NHERF2_1, Q15599, sequence (Q15599 9-91): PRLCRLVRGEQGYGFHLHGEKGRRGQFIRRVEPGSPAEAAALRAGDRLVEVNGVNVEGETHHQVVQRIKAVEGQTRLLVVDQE
Set-up: key: below the threshold = too weak to quantify, mostly under pKd 3.1 to 4
For RRVRKLPSTTL [RPS6KA1, Q15418], the pKd was “below the threshold”.
